The target of test [1] is HLA-A*02:06. Briefly: IEDB peptide-MHC binding, purified MHC/competitive/radioactivity; filed as Kd, often an IC50 or EC50 that approximates it; ≥ and ≤ were set here for values at or beyond the usual limits of such assays.
Test [2] has as its target HLA-A*02:03. Described as above.
The target of test [3] is HLA-A*02:02. The description is as above.
The target in test [4] is HLA-A*31:01. The test is described as above.
The target in test [5] is HLA-B*53:01. The description is as above.
Test [6] addresses HLA-B*51:01. The description is as above.
In test [7] the target is HLA-A*03:01. The description is as above.
The target in test [8] is HLA-B*54:01. The test is described as above.
Test [9] concerns the target HLA-A*68:01. The test is described as above.
Test [10] concerns the target HLA-A*33:01. The description is as above.
The target in test [11] is HLA-A*11:01. The test is described as above.
Test [12] has as its target HLA-A*02:01. The description is as above.
Test [13] addresses HLA-A*01:01. Described as above.
Test [14] addresses HLA-B*07:02. The description is as above.
Test [15] has as its target HLA-B*08:01. Described as above. As to conditions: source organism: Hepacivirus hominis.
The target in test [16] is HLA-A*68:02. The test is described as above.
In test [17] the target is HLA-B*35:01. The description is as above.
The target of test [18] is HLA-A*29:02. The description is as above. The conditions noted are these: source organism: Lassa virus Josiah.
Test [19] has as its target HLA-A*30:01. Described as above. The conditions noted are these: source organism: Lassa virus Josiah.
In test [20] the target is HLA-A*26:01. The description is as above. As to conditions: source organism: Lassa virus Josiah.
In test [21] the target is HLA-A*30:02. The test is described as above. The conditions noted are these: source organism: Lassa virus Josiah.
Test [22] addresses HLA-A*32:01. Described as above. As to conditions: source organism: Lassa virus Josiah.
Test [23] deals with HLA-A*29:02. Description: IEDB peptide-MHC binding, purified MHC/direct/fluorescence; filed as Kd, often an IC50 or EC50 that approximates it; ≥ and ≤ were set here for values at or beyond the usual limits of such assays. The conditions noted are these: source organism: Corynebacterium diphtheriae.
Test [24] addresses HLA-B*58:01. The test is described as above.
The target in test [25] is HLA-A*31:01. Described as above.
The target in test [26] is HLA-B*57:01. The description is as above. The conditions noted are these: source organism: Corynebacterium diphtheriae.
In test [27] the target is HLA-B*27:05. The description is as above.
The target in test [28] is HLA-A*03:01. The test is described as above.
Test [29] deals with HLA-B*44:02. Described as above. The conditions noted are these: source organism: Corynebacterium diphtheriae.
Test [30] concerns the target HLA-A*11:01. The description is as above.
Test [31] has as its target HLA-A*02:01. The description is as above.
Test [32] deals with HLA-A*01:01. Described as above.
In test [33] the target is HLA-B*07:02. Described as above.
The target of test [34] is HLA-B*08:01. The description is as above.
In test [35] the target is HLA-B*46:01. The description is as above. As to conditions: source organism: Corynebacterium diphtheriae.
Test [36] deals with HLA-B*48:01. The description is as above. As to conditions: source organism: Corynebacterium diphtheriae.
Test [37] concerns the target HLA-B*15:17. Description: IEDB peptide-MHC binding, purified MHC/competitive/fluorescence; filed as Kd, often an IC50 or EC50 that approximates it; ≥ and ≤ were set here for values at or beyond the usual limits of such assays. As to conditions: source organism: Bacillus licheniformis.
The target of test [38] is HLA-B*15:01. Briefly: IEDB peptide-MHC binding, purified MHC/direct/fluorescence; filed as Kd, often an IC50 or EC50 that approximates it; ≥ and ≤ were set here for values at or beyond the usual limits of such assays. The conditions noted are these: source organism: Bacillus licheniformis.
In test [39] the target is HLA-A*69:01. Described as above. As to conditions: source organism: Bacillus licheniformis.
Test [40] addresses HLA-A*26:01. Described as above. As to conditions: source organism: Bacillus licheniformis.
The target of test [41] is HLA-B*40:01. Described as above. The conditions noted are these: source organism: Bacillus licheniformis.
The mark [42] stands for this setting: source organism: Hepacivirus hominis.
[43] abbreviates: source organism: Lassa virus Josiah.
Where [44] appears, read: source organism: Vaccinia virus WR.
The mark [45] stands for this setting: source organism: Corynebacterium diphtheriae.
Where [46] appears, read: source organism: Bacillus licheniformis.

With HSKRKCDEL, the equilibrium dissociation constant (Kd) in [1] (setting [42]) was 1.15 µM; in test [2] (setting [42]), 12.4 µM; in test [3] (setting [42]) it was not below 43.4 µM; in test [4] (setting [42]) it was not below 77.9 µM; in test [5] (setting [42]) it was not below 30.1 µM; in [6] (setting [42]) it was not below 46.5 µM. In addition, the Kd in test [7] (setting [42]) is not below 78 µM; in [8] (setting [42]), not below 36.1 µM; in test [9] (setting [42]), not below 77.7 µM; in [10] (setting [42]) it was not below 77.7 µM; in test [11] (setting [42]), not below 77.9 µM; in test [12] (setting [42]), not below 33.9 µM. Also, the Kd is not below 59.8 µM in test [13] (setting [42]); not below 59.8 µM in test [14] (setting [42]); not below 77.6 µM in test [15]; not below 69.8 µM in test [16] (setting [42]); not below 77.4 µM in test [17] (setting [42]).

For LISIFLHLV, the Kd in [1] (setting [43]) was found to be 0.0804 µM; in [18] it was 11.8 µM; in [2] (setting [43]) it was 0.0208 µM; in test [3] (setting [43]) it was 0.0111 µM; in [19] it was 1.17 µM; in [20], 10.3 µM. Besides, the Kd in test [21] is 9.09 µM; in test [12] (setting [43]), 0.0472 µM; in [13] (setting [43]), 1.91 µM; in test [22], 6.7 µM; in test [16] (setting [43]), 0.0652 µM.

Regarding IVLFQRFLR, the Kd is not below 47.7 µM in test [1] (setting [44]); not below 48.1 µM in test [2] (setting [44]); not below 54.2 µM in test [3] (setting [44]); 0.000185 µM in [4] (setting [44]); not below 78.2 µM in [5] (setting [44]); not below 77.5 µM in [6] (setting [44]). The Kd in [7] (setting [44]) was 0.242 µM; in test [8] (setting [44]), not below 78.1 µM; in [9] (setting [44]) it was 0.00124 µM; in test [10] (setting [44]) it was 0.00238 µM; in test [11] (setting [44]) it was 0.0134 µM; in test [12] (setting [44]) it was not below 78.1 µM. In addition, the Kd was not below 77.5 µM in test [14] (setting [44]), not below 51.9 µM in [16] (setting [44]) and not below 21.9 µM in test [17] (setting [44]).

VERRLVKVL: the Kd in [23], in test [24] (setting [45]), in test [25] (setting [45]), in test [26], in test [27] (setting [45]) and in [28] (setting [45]) was not below 20 µM throughout. Moreover, the dissociation constant Kd in [29] is not below 20 µM; in test [30] (setting [45]), not below 20 µM; in [31] (setting [45]) it was not below 20 µM; in test [32] (setting [45]), not below 20 µM; in test [33] (setting [45]), not below 20 µM; in test [34] (setting [45]) it was 7 µM. Moreover, the Kd in test [35] and in test [36] was not below 20 µM each time.

As for KTIECSKEL, the Kd was 0.0099 µM in test [37]; 0.468 µM in [38]; not below 20 µM in test [39]; 0.279 µM in test [24] (setting [46]); 5.6 µM in test [25] (setting [46]); not below 20 µM in [40]. For the same sequence, the Kd in [27] (setting [46]) was not below 20 µM; in test [28] (setting [46]), not below 20 µM; in [41], not below 20 µM; in test [30] (setting [46]) it was not below 20 µM; in [31] (setting [46]), 0.235 µM; in test [32] (setting [46]), not below 20 µM. Further, the Kd in [33] (setting [46]) and in test [34] (setting [46]) was not below 20 µM in each case.

The record behind these values is the Immune Epitope Database (IEDB).
